# Patent US20170051058A1 (UNIVERSITAET DUISBURG ESSEN, published 2017)
# T1: CEACAM1 (human, UniProt P13688 35-526, limits assumed)
# T1 construct: also called entire CEACAM1; CD66a
# T1 sequence: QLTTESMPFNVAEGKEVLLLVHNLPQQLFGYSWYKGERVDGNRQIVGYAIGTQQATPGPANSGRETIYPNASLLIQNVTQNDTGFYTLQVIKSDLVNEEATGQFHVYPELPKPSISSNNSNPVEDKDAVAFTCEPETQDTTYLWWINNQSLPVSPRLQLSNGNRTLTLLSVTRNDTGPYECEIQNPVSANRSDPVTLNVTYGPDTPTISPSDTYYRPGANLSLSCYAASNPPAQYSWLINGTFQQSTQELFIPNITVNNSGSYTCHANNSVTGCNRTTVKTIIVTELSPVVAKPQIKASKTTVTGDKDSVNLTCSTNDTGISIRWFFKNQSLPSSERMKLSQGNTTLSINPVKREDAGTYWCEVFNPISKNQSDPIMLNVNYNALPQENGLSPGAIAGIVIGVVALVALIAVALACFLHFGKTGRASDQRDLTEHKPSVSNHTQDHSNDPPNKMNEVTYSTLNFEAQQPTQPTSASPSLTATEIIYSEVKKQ
# B1: anti-human CEACAM1 antibody (clone 6G5J) (antibody, V domains shown)
# VH: KPGETVKISCKTSGYIFRNYGMKWVKQAPGKGLKWMGWINTYTGEPTYADDFKGRFAFSLETSASTAYLQINNLKNEDMATYFCARRGMITTSNYALDNWGQGTSVTVSS
# VL: SSLSASLGDRVTISCRASQDISNYLNWYQQKPDGTIKLLIYYTSKLHSGVPSRFSGSGSGTDYSLTISNLDQEDIATYFCQQGNTLPWTFGGGTKLEIK
# notes: Mouse monoclonal antibody from a hybridoma; also called antibody 6G5J
# B2: anti-human CEACAM1 antibody (clone 18-20) (antibody, V domains shown)
# VH: KPGETVKISCKASGYTFTVYGMNWVKQAPGKDLKWMGWINTYTGEPTYADDFKGRFAFSLETSASTAYLQINNLKNEDMATYFCARKAFYRYDGGMDYWGQGTSVTVSS
# VL: SSLSASLGGKVTITCKASQDINKFLAWYQHKPGKGPRLLIHYTSTLQPGIPSRFSGSGSGRDYSFSISNLEPEDIATYYCLQYDNLYTFGGGTKLEIK
# notes: Mouse monoclonal antibody from a hybridoma; also called antibody 18-20
# B3: anti-human CEACAM1 antibody (clone B3-17) (antibody, V domains shown)
# VH: GPELVKPGTSVKMSCKASGYTFTTYVMHWVQQKPGQGLDWIGFFNPYNDGTKYNEKFKGKATLTSDKSSSTAYMELSSLTSEDSAVYYCARWAYDGSYAYWGQGTTLTVSS
# VL: SYLSVFLGGRVTITCKASDHINNWLAWYQQKPGNAPRLLISGATSLETGVPSRFSGSGSGKDYTLSIISLQTEDVATYYCQQYWRTPFTFGSGTKLEIK
# notes: Mouse monoclonal antibody from a hybridoma; also called antibody B3-17; mAB, B3-17
# Columns and labels:
# [1] = molecular target: CEACAM1 on human CD8+ T cells from the blood of healthy donors (human) (UniProt P13688); assay: flow cytometry on human PBMCs, gated on CD8+ T cells, anti-mouse IgG-APC
# CEACAM1 [2] = molecular target: T1, CEACAM1; assay: method not stated
# [3] = molecular target: CEACAM1 without N-domain (human) (UniProt P13688); assay: sandwich ELISA, CEACAM1dN from CHO transfectants captured by anti-CEA, detection with anti-mouse Ig-HRP
# CEACAM1 [4] = molecular target: T1, CEACAM1; assay: sandwich ELISA, CEACAM1 from CHO transfectants captured by anti-CEA, detection with anti-mouse Ig-HRP
# Method: Sandwich ELISA was coated with 0.25 μg/100 microL/well of anti-CEA (Dako). ELISA was washed and remaining binding sites blocked. Subsequently, CEACAM1 or CEACAM1deltaN (therefore CEACAM1 without N-domain, CEACAM1dN) was added thereto. CEACAM1 and CEACAM1deltaN were obtained from CHO transfectants. The ELISA was then incubated with differing antibodies. After 4 hours of incubation, the ELISA was washed and incubated with anti-mouse Ig-HRP. After 1 hour, the substrate TMB was added and the absorption measured at 450 nm.
Molecule,mean fluorescence intensity [1] [MFI],Kd (CEACAM1 [2]) [nM],absorption at 450 nm (mean) (absorption at 450 nm) [3],absorption at 450 nm (mean) (CEACAM1 [4]) [absorption at 450 nm]
isotype control (antibody),436,–,–,–
B1,–,23,0.066,1.09
B2,–,26,0.053,1.3
B3,–,10,0.91,0.62
